The values that follow are results of earlier work, collected in PMC5776729.

A word on the Kd: it is the concentration at which binding is half-saturated.

Series [1] deals with laminin 411 (Homo sapiens) (UniProt Q16363).
Series [2] addresses laminin 511 (Homo sapiens) (UniProt O15230).
The target in series [3] is laminin 111 (Mus musculus) (UniProt P19137).
The target of series [4] is laminin 111 (Homo sapiens) (UniProt P25391).

Chain of UniProt Q16363 (Q16363 25-1823, chain 1 of 3): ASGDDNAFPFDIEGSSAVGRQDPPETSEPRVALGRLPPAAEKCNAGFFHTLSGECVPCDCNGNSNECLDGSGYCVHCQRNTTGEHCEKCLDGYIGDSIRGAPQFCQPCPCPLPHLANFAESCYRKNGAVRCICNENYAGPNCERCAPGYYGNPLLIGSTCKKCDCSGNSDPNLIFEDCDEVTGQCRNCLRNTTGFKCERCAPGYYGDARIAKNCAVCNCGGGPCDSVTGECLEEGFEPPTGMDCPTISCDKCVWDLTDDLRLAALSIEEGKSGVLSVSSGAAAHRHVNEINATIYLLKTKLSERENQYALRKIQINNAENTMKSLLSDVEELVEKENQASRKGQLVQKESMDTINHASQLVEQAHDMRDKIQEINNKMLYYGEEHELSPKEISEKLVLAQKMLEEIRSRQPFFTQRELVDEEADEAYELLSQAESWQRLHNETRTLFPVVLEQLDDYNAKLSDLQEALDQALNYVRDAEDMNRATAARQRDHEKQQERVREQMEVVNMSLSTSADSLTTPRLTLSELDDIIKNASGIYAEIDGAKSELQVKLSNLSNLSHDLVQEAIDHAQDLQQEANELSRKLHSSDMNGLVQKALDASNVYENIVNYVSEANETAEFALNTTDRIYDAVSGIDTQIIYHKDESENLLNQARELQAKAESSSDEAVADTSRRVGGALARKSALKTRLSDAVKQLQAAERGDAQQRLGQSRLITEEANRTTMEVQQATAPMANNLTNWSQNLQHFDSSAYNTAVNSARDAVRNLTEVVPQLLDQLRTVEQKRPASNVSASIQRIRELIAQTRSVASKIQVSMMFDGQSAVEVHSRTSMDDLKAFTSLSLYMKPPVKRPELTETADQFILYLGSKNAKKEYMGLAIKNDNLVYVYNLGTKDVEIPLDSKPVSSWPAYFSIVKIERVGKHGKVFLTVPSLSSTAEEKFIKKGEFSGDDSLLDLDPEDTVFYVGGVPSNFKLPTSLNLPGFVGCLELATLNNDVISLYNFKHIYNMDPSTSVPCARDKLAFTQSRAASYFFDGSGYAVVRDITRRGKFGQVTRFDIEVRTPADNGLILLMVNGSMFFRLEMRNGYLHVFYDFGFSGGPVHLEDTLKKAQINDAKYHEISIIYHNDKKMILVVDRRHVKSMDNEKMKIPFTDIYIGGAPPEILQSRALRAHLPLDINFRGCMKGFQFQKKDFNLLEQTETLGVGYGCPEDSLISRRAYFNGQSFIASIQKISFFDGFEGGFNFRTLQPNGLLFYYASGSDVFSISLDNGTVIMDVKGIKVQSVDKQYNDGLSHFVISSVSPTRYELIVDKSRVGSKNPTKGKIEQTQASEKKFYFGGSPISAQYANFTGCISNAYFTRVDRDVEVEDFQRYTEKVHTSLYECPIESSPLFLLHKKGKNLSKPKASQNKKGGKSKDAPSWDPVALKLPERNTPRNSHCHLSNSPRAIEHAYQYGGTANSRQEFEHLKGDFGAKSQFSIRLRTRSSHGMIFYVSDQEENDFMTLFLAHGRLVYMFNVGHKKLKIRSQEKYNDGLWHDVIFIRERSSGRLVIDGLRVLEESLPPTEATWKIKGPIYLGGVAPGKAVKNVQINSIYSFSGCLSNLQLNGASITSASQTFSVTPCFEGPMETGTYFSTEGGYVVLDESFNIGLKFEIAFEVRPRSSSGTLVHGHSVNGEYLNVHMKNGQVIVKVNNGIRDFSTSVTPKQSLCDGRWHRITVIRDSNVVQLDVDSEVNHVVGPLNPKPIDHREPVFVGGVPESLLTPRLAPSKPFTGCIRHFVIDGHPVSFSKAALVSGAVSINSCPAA
Chain of UniProt Q16363 (P07942 22-1786, chain 2 of 3, further chain): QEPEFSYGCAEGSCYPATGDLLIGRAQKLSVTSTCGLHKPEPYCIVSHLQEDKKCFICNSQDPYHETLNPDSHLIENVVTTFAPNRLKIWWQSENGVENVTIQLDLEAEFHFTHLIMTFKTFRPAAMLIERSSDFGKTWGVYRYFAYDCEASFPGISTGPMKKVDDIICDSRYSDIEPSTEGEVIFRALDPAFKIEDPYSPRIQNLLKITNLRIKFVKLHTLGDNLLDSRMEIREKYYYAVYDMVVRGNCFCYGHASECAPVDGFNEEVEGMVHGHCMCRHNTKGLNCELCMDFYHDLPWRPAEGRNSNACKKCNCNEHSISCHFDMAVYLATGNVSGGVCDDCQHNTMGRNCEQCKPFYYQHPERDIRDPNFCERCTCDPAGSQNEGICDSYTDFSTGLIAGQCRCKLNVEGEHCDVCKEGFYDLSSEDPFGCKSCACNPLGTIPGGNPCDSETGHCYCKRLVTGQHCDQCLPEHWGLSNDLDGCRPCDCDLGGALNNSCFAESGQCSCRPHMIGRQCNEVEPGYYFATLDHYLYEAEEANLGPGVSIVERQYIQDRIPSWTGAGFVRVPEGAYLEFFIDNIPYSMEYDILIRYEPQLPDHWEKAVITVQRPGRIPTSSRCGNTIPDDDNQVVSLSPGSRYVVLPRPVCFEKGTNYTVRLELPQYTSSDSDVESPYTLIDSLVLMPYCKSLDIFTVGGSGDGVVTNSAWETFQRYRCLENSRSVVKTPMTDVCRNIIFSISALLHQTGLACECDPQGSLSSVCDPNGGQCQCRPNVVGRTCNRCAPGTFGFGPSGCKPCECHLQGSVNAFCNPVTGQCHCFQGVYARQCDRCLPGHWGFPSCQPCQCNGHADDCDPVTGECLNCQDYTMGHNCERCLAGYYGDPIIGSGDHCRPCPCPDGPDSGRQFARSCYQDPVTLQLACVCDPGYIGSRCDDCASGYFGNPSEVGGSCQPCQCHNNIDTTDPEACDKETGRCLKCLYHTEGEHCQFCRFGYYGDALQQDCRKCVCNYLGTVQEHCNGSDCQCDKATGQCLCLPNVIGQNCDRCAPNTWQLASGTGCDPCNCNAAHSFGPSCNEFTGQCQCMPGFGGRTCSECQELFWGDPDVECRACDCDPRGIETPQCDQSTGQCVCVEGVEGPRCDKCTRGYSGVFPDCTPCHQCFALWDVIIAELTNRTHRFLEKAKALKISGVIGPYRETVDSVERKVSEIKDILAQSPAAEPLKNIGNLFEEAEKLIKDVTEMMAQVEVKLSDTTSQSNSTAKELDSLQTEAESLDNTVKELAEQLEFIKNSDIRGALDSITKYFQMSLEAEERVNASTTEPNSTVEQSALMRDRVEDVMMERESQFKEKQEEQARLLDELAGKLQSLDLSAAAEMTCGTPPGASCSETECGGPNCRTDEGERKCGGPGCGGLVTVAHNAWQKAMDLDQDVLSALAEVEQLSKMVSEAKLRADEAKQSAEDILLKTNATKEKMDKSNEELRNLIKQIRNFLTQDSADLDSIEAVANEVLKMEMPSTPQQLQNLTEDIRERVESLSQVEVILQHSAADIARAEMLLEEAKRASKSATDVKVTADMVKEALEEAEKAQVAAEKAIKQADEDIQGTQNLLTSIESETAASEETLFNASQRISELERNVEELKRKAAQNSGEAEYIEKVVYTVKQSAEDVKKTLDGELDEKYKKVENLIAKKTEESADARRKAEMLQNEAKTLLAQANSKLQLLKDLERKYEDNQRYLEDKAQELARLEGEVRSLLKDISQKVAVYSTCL
Chain of UniProt Q16363 (P11047 34-1609, chain 3 of 3, further chain): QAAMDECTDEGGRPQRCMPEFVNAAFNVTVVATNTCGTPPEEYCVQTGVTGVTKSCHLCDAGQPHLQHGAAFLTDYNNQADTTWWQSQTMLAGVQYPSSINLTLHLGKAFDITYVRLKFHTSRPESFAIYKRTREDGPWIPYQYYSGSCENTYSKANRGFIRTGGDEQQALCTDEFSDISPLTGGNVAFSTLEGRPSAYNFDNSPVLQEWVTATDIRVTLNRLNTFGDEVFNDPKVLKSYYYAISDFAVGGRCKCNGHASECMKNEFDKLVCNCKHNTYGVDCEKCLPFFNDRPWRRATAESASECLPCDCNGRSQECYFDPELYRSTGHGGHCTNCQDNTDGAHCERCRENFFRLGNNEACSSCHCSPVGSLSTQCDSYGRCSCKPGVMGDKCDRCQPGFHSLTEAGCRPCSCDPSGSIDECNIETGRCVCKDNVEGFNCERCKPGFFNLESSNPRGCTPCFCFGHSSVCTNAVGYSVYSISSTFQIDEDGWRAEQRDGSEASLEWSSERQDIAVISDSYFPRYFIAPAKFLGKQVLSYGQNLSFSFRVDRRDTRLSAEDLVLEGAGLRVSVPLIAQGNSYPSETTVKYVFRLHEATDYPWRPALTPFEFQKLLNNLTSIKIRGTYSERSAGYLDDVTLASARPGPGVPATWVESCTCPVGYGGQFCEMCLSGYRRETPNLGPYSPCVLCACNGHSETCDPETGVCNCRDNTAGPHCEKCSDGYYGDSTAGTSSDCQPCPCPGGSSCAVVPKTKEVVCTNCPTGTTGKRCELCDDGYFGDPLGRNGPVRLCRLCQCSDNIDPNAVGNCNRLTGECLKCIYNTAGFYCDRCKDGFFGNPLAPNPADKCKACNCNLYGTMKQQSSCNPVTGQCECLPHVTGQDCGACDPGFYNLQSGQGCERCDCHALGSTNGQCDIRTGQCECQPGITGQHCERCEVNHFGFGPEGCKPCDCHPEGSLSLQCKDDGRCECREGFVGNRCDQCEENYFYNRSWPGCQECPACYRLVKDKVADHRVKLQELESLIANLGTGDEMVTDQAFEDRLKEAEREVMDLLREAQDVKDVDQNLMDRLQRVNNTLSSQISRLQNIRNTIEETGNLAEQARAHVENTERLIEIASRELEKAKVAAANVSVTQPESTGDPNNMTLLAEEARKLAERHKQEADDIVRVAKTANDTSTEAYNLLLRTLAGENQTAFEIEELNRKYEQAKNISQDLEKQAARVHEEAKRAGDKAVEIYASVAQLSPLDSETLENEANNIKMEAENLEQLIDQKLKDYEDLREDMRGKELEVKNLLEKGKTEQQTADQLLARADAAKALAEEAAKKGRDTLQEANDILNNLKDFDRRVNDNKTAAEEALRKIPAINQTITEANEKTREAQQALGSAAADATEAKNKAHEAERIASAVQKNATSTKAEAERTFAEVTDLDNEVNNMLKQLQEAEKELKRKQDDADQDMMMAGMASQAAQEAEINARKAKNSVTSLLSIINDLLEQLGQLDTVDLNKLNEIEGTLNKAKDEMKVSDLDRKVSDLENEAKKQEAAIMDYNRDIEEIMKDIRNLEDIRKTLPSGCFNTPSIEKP

As to Factor XI (from UniProt P03951), the Kd in series [1] was 0.0092 µM; in series [2] it was 0.0083 µM; in series [3], 0.0188 µM; in series [4], 0.0111 µM.
